Results taken from patent US20090054250.
Like-named read-outs stand apart in the source and are kept apart here.

How the values were obtained:
[1] = tested on: IgE immunoglobulin, P01854-1; conditions: n at position 18 is 2-aminopurine replacing C [18 (2-aminopurine replacing C)]; PAGE purified, saturating IgE; affinity stated comparable to unmodified aptamer; screening buffer 20 mM Tris pH 7.1, 140 mM NaCl, 5 mM KCl, 10 mM CaCl2, 10 mM …
[2] = tested on: IgE immunoglobulin, P01854-1; conditions: saturating IgE

Chain of IgE immunoglobulin, P01854-1 (P01854 other isoform, or with tags, fused parts or gaps): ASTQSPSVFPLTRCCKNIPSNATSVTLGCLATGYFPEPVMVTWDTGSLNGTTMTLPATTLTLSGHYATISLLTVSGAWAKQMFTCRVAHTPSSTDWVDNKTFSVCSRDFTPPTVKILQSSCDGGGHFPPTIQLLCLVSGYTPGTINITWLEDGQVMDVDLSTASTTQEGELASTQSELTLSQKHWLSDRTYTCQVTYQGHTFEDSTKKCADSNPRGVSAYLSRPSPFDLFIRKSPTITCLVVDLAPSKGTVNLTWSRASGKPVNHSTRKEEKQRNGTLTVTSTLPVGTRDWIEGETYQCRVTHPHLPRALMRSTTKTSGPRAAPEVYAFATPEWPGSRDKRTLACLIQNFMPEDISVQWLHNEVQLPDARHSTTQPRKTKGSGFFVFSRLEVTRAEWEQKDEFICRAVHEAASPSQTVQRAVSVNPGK

**Q.** Which binding signal (fold fluorescence increase) [1] does the source give for “GGGGCACGTTTATCCGTCCCTCCTAGTGGCGTGCCCC [IgE aptamer 2AP-18]” here?
**A.** The binding signal (fold fluorescence increase) was 5.6.

**Q.** With “GGGGCACGTTTATCCGTCCCTCCTAGTGGCGTGCCCC [IgE aptamer 3MI-18]” as the sequence, how does the binding signal (fold fluorescence increase) ([2]; n at position 18 is 3-methylisoxanthopterin replacing C [18 (3-methylisoxanthopterin replacing C)]) read?
**A.** Its binding signal (fold fluorescence increase) is 1.5.

**Q.** With “GGGGCACGTTTATCCGTCCCTCCTAGTGGCGTGCCCC [IgE aptamer 6MAP-18]” as the sequence, how does the binding signal (fold fluorescence increase) ([2]; n at position 18 is 6MAP replacing C [18 (6MAP replacing C)]) read?
**A.** Its binding signal (fold fluorescence increase) is 1.9.
